From the supplement of paper PMC12042874
± gives the uncertainty stated by the source.

Test: amyloid nucleation score (Sup35N fusion, yeast selection) (log enrichment); library NNK1; higher = more nucleation; inactive = no reads after selection
In short: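 DiMSum was used to calculate nucleation scores as log enrichment of output over input reads, centred on the mode score of non-aggregating sequences. Sequences with fewer than 100 input reads were not scored. Input and output came from Illumina sequencing of plasmid inserts in psi-negative yeast expressing peptides of 20 random codons fused to Sup35N, induced 24 hours with 100 μM copper sulfate and then grown 7 days at 30°C on medium lacking adenine and uracil.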

| Substance | amyloid nucleation score |
| --- | --- |
| MAPEFCIEDKIRVVPFLIPI | 0.197 ± 0.89 |
| MASTMPC | -0.654 ± 1 |
| MAWDLT | 1.52 ± 0.22 |
| MCFDGICMNWWVR | 2.96 ± 0.086 |
| MCLSPVNNVLLYFRFNKRAE | 3.38 ± 0.12 |
| MCMQKVL | -0.263 ± 1.4 |
| MCSLFVCMSNTSIV | 5.406 ± 0.051 |
| MDLNEQTEYLLLASRFPMYY | inactive |
| MDNGTESPLE | 1.15 ± 0.72 |
| MDRFRHNLILICLFLPLILV | -0.364 ± 0.75 |
| MDSDRVRPDESSVGLN | 0.915 ± 0.56 |
| MEAWRHSTSACSDGA | -0.245 ± 0.39 |
| MESLIRFSPASKIVISPFTV | 0.748 ± 1.2 |
| MEWLYRNTATFCR | -0.657 ± 1.7 |
| MFFLYCLARRVGKLMECRV | 1.28 ± 0.46 |
| MFFVSI | 0.41 ± 0.22 |
| MFGIFM | 3.58 ± 0.099 |
| MFKNRGG | 0.057 ± 0.36 |
| MFLIGFDGTYERSSLF | -0.106 ± 1.7 |
| MFRALVCITVPILHKATNM | -0.689 ± 0.81 |
| MFSQLGVYISCFLSSSVDVE | 0.317 ± 0.48 |
| MFVDFTDVRMVYLSLCVYML | 1.25 ± 0.093 |
| MGHTGYFQCKVATWCEGE | 0.792 ± 0.92 |
| MGLMIMIFWWEDM | -0.82 ± 0.91 |
| MGSEVSELWGLVEVKVGDKP | 0.617 ± 0.52 |

| Substance | amyloid nucleation score |
| --- | --- |
| MHCLGLAWALELVSLLC | -0.374 ± 0.77 |
| MHISCNTDSSYTFGRNALK | 0.341 ± 0.74 |
| MHLVQSCYLVIPRVLDPELV | 0.313 ± 1 |
| MHRGDVMRSSWNHDGVGTVR | 0.048 ± 1.2 |
| MHVQRVFTRCFKFSPQFVRH | -1.11 ± 0.36 |
| MHYWGTGKHQINTWNMILFI | 3.95 ± 0.11 |
| MICYLF | 0.019 ± 0.26 |
| MIGTYRWMLIMGLETVRKGG | inactive |
| MIHVFLGETYLVIFAVNFST | inactive |
| MIMLIWVINSLTYGLEGLTA | 0.919 ± 0.39 |
| MIPDINIFQIIMVTHKLFRY | 3.71 ± 0.14 |
| MISDFSNVIMLVCIPCFLYV | 5.13 ± 0.067 |
| MKDYHSDHIKIVQANHTEKV | -1.32 ± 2.4 |
| MKGARFARS | 0.91 ± 0.8 |
| MKIGIGVFRDREGNSGWL | -0.741 ± 1.4 |
| MKVRISEILEILKVSFKNFP | -1.21 ± 1.4 |
| MKVYHSTQEVLWGQGGLLTR | -0.116 ± 0.42 |
| MKYKSWTSGSGSSVSRRMKL | 0.028 ± 0.72 |
| MKYPENSQWKDLYGFTVQVH | 0.102 ± 0.46 |
| MLEQAFESFPTWRTT | -0.06 ± 0.5 |
| MLFLARRILSEYRFMPTWVG | inactive |
| MLGSGAANTCHLTTRAWDHR | 0.183 ± 0.39 |
| MLHHLSYVAVRWCKRTRKLC | 0.405 ± 0.71 |
| MLIRWNSYTGHIGWIFSGKA | 0.94 ± 0.19 |
| MLRSNVLYLIHRALCLWCVT | 2.42 ± 0.17 |

| Substance | amyloid nucleation score |
| --- | --- |
| MLSII | -1.39 ± 1.7 |
| MLWSL | 0.342 ± 0.59 |
| MMLGSGFLCLLMYDGVRFLL | -0.839 ± 0.62 |
| MMRTEIARVLCLSLF | 0.077 ± 0.37 |
| MNFSYLWVYGNGL | -0.629 ± 0.63 |
| MNIVSTRS | 0.231 ± 0.22 |
| MNLQYHILN | -0.345 ± 1.7 |
| MPCFGVQKIYQLDETMPSET | 0.141 ± 0.45 |
| MPDYVVGYHGGWSCNLILRF | 2.54 ± 0.19 |
| MPGNQYCSVSYLYQRSSGTV | 0.384 ± 0.45 |
| MPLSILQLKTRFFKPSNDSR | 5.42 ± 0.11 |
| MPLYLVCDFLNYGFVISVSS | 4.42 ± 0.095 |
| MQINGRESDCMWNNMNARDW | -0.108 ± 0.27 |
| MQLHNGWMLITYKKGTSIIW | -2.3 ± 1.8 |
| MQLTFAVKLGENRE | 2.77 ± 0.079 |
| MRCPRLASSDNDPCLLSRVS | 0.357 ± 0.39 |
| MRDLALLAEVLVTD | 0.295 ± 0.4 |
| MRENIWPITCSNL | 2.28 ± 0.57 |
| MRFMPVVWCRRMQESLGHST | -0.026 ± 0.37 |
| MRGERVYSLRNNSHQ | -0.078 ± 0.33 |
| MRIIQCRRLFKVCCCFSVCL | 2.28 ± 0.14 |
| MRLSHAVTYRN | -0.987 ± 1.7 |
| MRLSNYFTGRDWGF | -0.046 ± 0.43 |
| MRLSQRWPNSKVCDLRHSRP | 0.632 ± 0.45 |
| MRNKKRPSRLVIGRLGNGFS | -0.079 ± 0.84 |

| Substance | amyloid nucleation score |
| --- | --- |
| MRNYNLAWRHSSYCTIRSNA | 0.51 ± 0.84 |
| MRPVSLYGFIFCCAFQGLWF | 4.99 ± 0.07 |
| MRRPVKCYGVVTL | -0.299 ± 1.1 |
| MRRRIQLDLRRFDPSCMKDV | -1.66 ± 1.1 |
| MRSMGLCTTGCQIDSRRVRW | 0.947 ± 0.61 |
| MRSWIVIMALKM | -1.34 ± 0.85 |
| MRYLNFLCHCVVVYVVMSAS | 2.16 ± 0.57 |
| MSASLWRGNKVDHWHSECYK | -0.661 ± 0.64 |
| MSAVTGYECFRSLLV | -0.055 ± 0.35 |
| MSDSG | -0.576 ± 0.81 |
| MSKIGLLRLDDYHRMGFCKQ | -0.469 ± 0.38 |
| MSLFNISSHSWLKFTLCVPG | 1.17 ± 0.66 |
| MSMKQEEVDGSSW | -0.553 ± 1.5 |
| MSNFLTELGNNSTHREDGER | 0.501 ± 0.78 |
| MSSFRGDLEFAYDYS | -0.582 ± 1.2 |
| MSVCAIYRVRVFQCCFTCLH | -0.953 ± 0.68 |
| MSVGSRFTHHIMWTVTKNRV | 0.424 ± 1 |
| MTAPHFLYLKRPHRPTRPDL | 0.898 ± 0.58 |
| MTRLINYCNGYNAKVVNWCF | 0.7 ± 0.97 |
| MTRNELLSLSLARCVGANAL | 0.088 ± 1.2 |
| MTRWTGRSLTLMRLQVVLRP | -0.413 ± 0.62 |
| MTSLFLCKVTRM | 0.23 ± 0.6 |
| MTSVADECSLYSWAYSWLMS | 1.84 ± 0.57 |
| MVDTYRYVIISVYVMLPYYN | 1.14 ± 0.97 |
| MVETVYMVEALCRGPEPVVV | -2.09 ± 2.4 |

| Substance | amyloid nucleation score |
| --- | --- |
| MVFRGFHKSQLGSFELAVGG | 0.428 ± 0.76 |
| MVGQYRYLSPYGW | 0.724 ± 1.2 |
| MVKLSLVIMMVLNGGMANGS | 0.69 ± 0.81 |
| MVQNVWDVRYDEAAMTLVRH | 0.461 ± 0.61 |
| MVRYKRRSLELFMIARYSCC | 0.599 ± 1.2 |
| MVSTPSDGNLED | -0.816 ± 0.65 |
| MVWVKGEDCFVDQACLRGAV | 1.03 ± 0.72 |
| MWIPFRVYLRAH | inactive |
| MWLFYRWVRSCTCP | -0.042 ± 0.32 |
| MWSIYMHVAHLGMQTRGCCR | 1.76 ± 0.22 |
| MWSLDGTKICNLRKVFGRSC | 0.809 ± 0.37 |
| MYASELSLKPATYSWK | -0.646 ± 0.42 |
| MYYSIGWKR | 1.48 ± 0.8 |
| MYYVIFNTNSHAN | 4.55 ± 0.093 |
| NAAYRVWMWKSLVRSLGRYK | 0.647 ± 0.4 |
| NADCLIDDFASFDHMVPG | 0.004 ± 0.51 |
| NAFSYTGRYIGLPRELGVLR | 1.06 ± 0.52 |
| NCASLLGRFSDDLIDHLSVL | 2.02 ± 0.62 |
| NCMAISGITVLNMSWNNLKI | 6.612 ± 0.064 |
| NCMLTECPGLHSNLMWSKWG | 1.5 ± 0.25 |
| NCNSGSNDTGFWQMASRTGL | 0.071 ± 0.4 |
| NCRMGR | -0.016 ± 1.7 |
| NCSMPFETMMKHSRN | -0.068 ± 0.53 |
| NCTWITGIFS | 0.044 ± 0.35 |
| NDDYHTLSQCACSFALRADG | 1.08 ± 0.54 |

| Substance | amyloid nucleation score |
| --- | --- |
| NDIPLSIRSHS | 0.269 ± 0.37 |
| NDIYLDGNVFKF | -0.477 ± 0.37 |
| NDNLVDNQT | 0.23 ± 0.75 |
| NDQVNVNFS | 0.338 ± 0.22 |
| NDRCFIGPWRSSRPGDFSGH | -0.043 ± 1.4 |
| NDRFFGSKYCGVIVLSISDL | 5.95 ± 0.061 |
| NDRTKNQSYFP | -0.195 ± 0.29 |
| NDSICTYSMAWGRERSGVCY | inactive |
| NDSNSPIFPGGDHPWCGFDW | 0.089 ± 0.88 |
| NDYEELIMYFKEDVF | 1.76 ± 0.5 |
| NECSGGLQKLLNRTTNSDLW | 0.185 ± 0.33 |
| NERSSEELAPLDTQWSMLRG | -0.124 ± 0.69 |
| NEVPCVRRWSCRGLCARELM | 0.429 ± 0.88 |
| NFCVSVVFP | 1.84 ± 0.54 |
| NFDYHTTTVGMELWSLGFSS | -0.585 ± 0.51 |
| NFHFVMGISVIRRLMSESQS | -0.366 ± 0.66 |
| NFLIANRSLDAVLMVQLPFV | -0.344 ± 0.98 |
| NFPFMFKCSPGNVHLVDIR | -0.535 ± 1.7 |
| NFVICNVMDRISWLCVCNLH | 4.08 ± 0.076 |
| NGCDIFSFGFYLLILFSLIQ | -0.196 ± 0.49 |
| NGCVLLMVMVLTVDIAL | 2.78 ± 0.18 |
| NGEILSTLDDVTMLRIRTTC | 0.071 ± 0.41 |
| NGFGAYVYNSYLRFGNLSRA | inactive |
| NGFLTSRCMLVCMKGMV | 0.729 ± 0.34 |
| NGFQLTILKDHGLVKRQSPR | inactive |

| Substance | amyloid nucleation score |
| --- | --- |
| NGLGFLNGRSSFGVGCYY | -0.486 ± 0.28 |
| NGMLFCT | 0.267 ± 0.79 |
| NGRLMVGMLHV | 0.719 ± 0.56 |
| NGTRYMEAIMEKSLC | 1.47 ± 0.4 |
| NGTTLVAVSYELPLSGVLSK | -0.798 ± 0.57 |
| NGVMESGNRRTLLRPTVVET | -0.016 ± 1.2 |
| NGVSTVEYVMFKFSIAFAMF | 6.583 ± 0.046 |
| NGYELYTDQGGQLVVCDESS | -2.07 ± 1.6 |
| NGYFYTTYASDVPRRYVPYL | 0.387 ± 0.33 |
| NHFGAYVVYGFIEHKKTGMW | 1.82 ± 0.19 |
| NHIQRVSTFVLAMSYYVRTV | -0.236 ± 1.2 |
| NHPTRPLTTQLGLAAQAKSG | -0.153 ± 0.47 |
| NIAYQTDSGVRLRFVTDSRG | inactive |
| NICTLYPT | 0.236 ± 1.1 |
| NICVFNEFKVYNAYTVYWGW | 5.801 ± 0.054 |
| NICWFGVSRLQKMEGLWTGA | 0.515 ± 0.67 |
| NIITVGNGSILMMVWSSEVN | 5.63 ± 0.08 |
| NIVFL | 0.021 ± 0.55 |
| NIVSALRYITPYYLAAYPIT | 0.025 ± 0.36 |
| NKAVKLQSDPMGALC | 0.701 ± 0.54 |
| NKLGLLRVFKVRFPPCCCCD | -0.266 ± 0.99 |
